{
  "source": "the supplement of paper PMC5998384",
  "key": {"HeLa Kyoto [1]": {"system": "HeLa Kyoto", "assay": "melting temperature (median over replicates), in situ; higher = more thermally stable"}, "HeLa Kyoto [2]": {"system": "HeLa Kyoto", "assay": "solubility in G1/S (NP-40 vs SDS abundance) (log2 ratio); higher = more soluble", "settings": "cell cycle stage: G1/S"}, "HeLa Kyoto [3]": {"system": "HeLa Kyoto", "assay": "solubility change mitosis vs G1/S (difference of NP-40 vs SDS log2 ratios) (log2 ratio difference); higher = more soluble in mitosis"}, "HeLa Kyoto [4]": {"system": "HeLa Kyoto", "assay": "thermal stability score vs G1/S (z-score of summed log2 fold changes over temperatures); higher = more thermally stable than in G1/S"}, "[5]": {"settings": "cell cycle stage: early G1 (4.5 h after nocodazole release)"}},
  "data": [
    {"sequence": "MAEHPPLLDTTQILSSDISLLSAPIVSADGTQQVILVQVNPGEAFTIRREDGQFQCITGPAQVPMMSPNGSVPPIYVPPGYAPQVIEDNGVRRVVVVPQAPEFHPGSHTVLHRSPHPPLPGFIPVPTMMPPPPRHMYSPVTGAGDMTTQYMPQYQSSQVYGDVDAHSTHGRSNFRDERSSKTYERLQKKLKDRQGTQKDKMSSPPSSPQKCPSPINEHNGLIKGQIAGGINTGSAKIKSGKGKGGTQVDTEIEEKDEETKAFEALLSNIVKPVASDIQARTVVLTWSPPSSLINGETDESSVPELYGYEVLISSTGKDGKYKSVYVGEETNITLNDLKPAMDYHAKVQAEYNSIKGTPSEAEIFTTLSCEPDIPNPPRIANRTKNSLTLQWKAPSDNGSKIQNFVLEWDEGKGNGEFCQCYMGSQKQFKITKLSPAMGCKFRLSARNDYGTSGFSEEVLYYTSGCAPSMPASPVLTKAGITWLSLQWSKPSGTPSDEGISYILEMEEETSGYGFKPKYDGEDLAYTVKNLRRSTKYKFKVIAYNSEGKSNPSEVVEFTTCPDKPGIPVKPSVKGKIHSHSFKITWDPPKDNGGATINKYVVEMAEGSNGNKWEMIYSGATREHLCDRLNPGCFYRLRVYCISDGGQSAVSESLLVQTPAVPPGPCLPPRLQGRPKAKEIQLRWGPPLVDGGSPISCYSVEMSPIEKDEPREVYQGSEVECTVSSLLPGKTYSFRLRAANKMGFGPFSEKCDITTAPGPPDQCKPPQVTCRSATCAQVNWEVPLSNGTDVTEYRLEWGGVEGSMQICYCGPGLSYEIKGLSPATTYYCRVQALSVVGAGPFSEVVACVTPPSVPGIVTCLQEISDDEIENPHYSPSTCLAISWEKPCDHGSEILAYSIDFGDKQSLTVGKVTSYIINNLQPDTTYRIRIQALNSLGAGPFSHMIKLKTKPLPPDPPRLECVAFSHQNLKLKWGEGTPKTLSTDSIQYHLQMEDKNGRFVSLYRGPCHTYKVQRLNESTSYKFCIQACNEAGEGPLSQEYIFTTPKSVPAALKAPKIEKVNDHICEITWECLQPMKGDPVIYSLQVMLGKDSEFKQIYKGPDSSFRYSSLQLNCEYRFRVCAIRQCQDSLGHQDLVGPYSTTVLFISQRTEPPASTNRDTVESTRTRRALSDEQCAAVILVLFAFFSILIAFIIQYFVIK [FNDC3A]", "values": [
      {"measurement": "melting temperature", "setting": "HeLa Kyoto [1]; cell cycle stage: G1/S", "value": 48.7, "unit": "°C"},
      {"measurement": "melting temperature", "setting": "HeLa Kyoto [1]; cell cycle stage: mitosis", "value": 49.1, "unit": "°C"},
      {"measurement": "solubility in G1/S (log2)", "setting": "HeLa Kyoto [2]", "value": -0.111},
      {"measurement": "solubility change mitosis (log2)", "setting": "HeLa Kyoto [3]", "value": -0.0736},
      {"measurement": "thermal stability score", "setting": "HeLa Kyoto [4]; [5]", "value": 1.05},
      {"measurement": "thermal stability score", "setting": "HeLa Kyoto [4]; cell cycle stage: mitosis", "value": 2.65}
    ]},
    {"sequence": "MEDEMPKTLYVGNLSRDVTEALILQLFSQIGPCKNCKMIMDTAGNDPYCFVEFHEHRHAAAALAAMNGRKIMGKEVKVNWATTPSSQKKDTSSSTVVSTQRSQDHFHVFVGDLSPEITTEDIKAAFAPFGRISDARVVKDMATGKSKGYGFVSFFNKWDAENAIQQMGGQWLGGRQIRTNWATRKPPAPKSTYESNTKQLSYDEVVNQSSPSNCTVYCGGVTSGLTEQLMRQTFSPFGQIMEIRVFPDKGYSFVRFNSHESAAHAIVSVNGTTIEGHVVKCYWGKETLDMINPVQQQNQIGYPQPYGQWGQWYGNAQQIGQYMPNGWQVPAYGMYGQAWNQQGFNQTQSSAPWMGPNYGVQPPQGQNGSMLPNQPSGYRVAGYETQ [TIA1]", "values": [
      {"measurement": "melting temperature", "setting": "HeLa Kyoto [1]; cell cycle stage: G1/S", "value": 53.5, "unit": "°C"},
      {"measurement": "melting temperature", "setting": "HeLa Kyoto [1]; cell cycle stage: mitosis", "value": 53, "unit": "°C"},
      {"measurement": "solubility in G1/S (log2)", "setting": "HeLa Kyoto [2]", "value": 0.0405},
      {"measurement": "solubility change mitosis (log2)", "setting": "HeLa Kyoto [3]", "value": 0.0786},
      {"measurement": "thermal stability score", "setting": "HeLa Kyoto [4]; [5]", "value": -0.653},
      {"measurement": "thermal stability score", "setting": "HeLa Kyoto [4]; cell cycle stage: mitosis", "value": -1.44}
    ]},
    {"sequence": "MDRMTEDALRLNLLKRSLDPADERDDVLAKRLKMEGHEAMERLKMLALLKRKDLANLEVPHELPTKQDGSGVKGYEEKLNGNLRPHGDNRTAGRPGKENINDEPVDMSARRSEPERGRLTPSPDIIVLSDNEASSPRSSSRMEERLKAANLEMFKGKGIEERQQLIKQLRDELRLEEARLVLLKKLRQSQLQKENVVQKTPVVQNAASIVQPSPAHVGQQGLSKLPSRPGAQGVEPQNLRTLQGHSVIRSATNTTLPHMLMSQRVIAPNPAQLQGQRGPPKPGLVRTTTPNMNPAINYQPQSSSSVPCQRTTSSAIYMNLASHIQPGTVNRVSSPLPSPSAMTDAANSQAAAKLALRKQLEKTLLEIPPPKPPAPLLHFLPSAANSEFIYMVGLEEVVQSVIDSQGKSCASLLRVEPFVCAQCRTDFTPHWKQEKNGKILCEQCMTSNQKKALKAEHTNRLKNAFVKALQQEQEIEQRLQQQAALSPTTAPAVSSVSKQETIMRHHTLRQAPQPQSSLQRGIPTSARSMLSNFAQAPQLSVPGGLLGMPGVNIAYLNTGIGGHKGPSLADRQREYLLDMIPPRSISQSISGQK [GATAD2B]", "values": [
      {"measurement": "melting temperature", "setting": "HeLa Kyoto [1]; cell cycle stage: G1/S", "value": 49, "unit": "°C"},
      {"measurement": "melting temperature", "setting": "HeLa Kyoto [1]; cell cycle stage: mitosis", "value": 50.6, "unit": "°C"},
      {"measurement": "solubility in G1/S (log2)", "setting": "HeLa Kyoto [2]", "value": 0.413},
      {"measurement": "solubility change mitosis (log2)", "setting": "HeLa Kyoto [3]", "value": 0.158},
      {"measurement": "thermal stability score", "setting": "HeLa Kyoto [4]; [5]", "value": 1.06},
      {"measurement": "thermal stability score", "setting": "HeLa Kyoto [4]; cell cycle stage: mitosis", "value": 3.82}
    ]}
  ]
}
